Data published in patent publication US20040253689A1.

Experiments:
Test in all cases: cell-based or functional assay
[1] = molecular target: 6m-hIGFBP-3 (I56A, Y57A, R75A, L77A, L80A, L81A mutant CHO-hIGFBP-3) (human) (UniProt P17936)
[2] = molecular target: wild-type CHO-hIGFBP-3 (6xHis/Xpress/enterokinase-tagged mature human IGFBP-3 expressed in CHO-K1 cells from pRSV-Sec-BP3) (human) (UniProt P17936)
[3] = molecular target: recombinant hIGFBP-3 standard (R&D Systems; synthesized in NSO mouse myeloma cells) (human) (UniProt P17936)
Chain of recombinant hIGFBP-3 standard (R&D Systems; synthesized in NSO mouse myeloma cells) (human) (P17936 28-291 limits assumed): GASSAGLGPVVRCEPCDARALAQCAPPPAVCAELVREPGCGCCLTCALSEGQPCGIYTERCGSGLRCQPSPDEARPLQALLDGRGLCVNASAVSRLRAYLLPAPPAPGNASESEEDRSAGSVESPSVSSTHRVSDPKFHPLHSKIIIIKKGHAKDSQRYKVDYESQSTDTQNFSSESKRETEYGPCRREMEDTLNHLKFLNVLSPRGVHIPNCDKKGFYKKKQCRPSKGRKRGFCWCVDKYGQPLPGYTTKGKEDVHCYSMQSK

Chain of 6m-hIGFBP-3 (I56A, Y57A, R75A, L77A, L80A, L81A mutant CHO-hIGFBP-3) (human) (P17936 other isoform, or with tags, fused parts or gaps I56A Y57A R75A L77A L80A L81A I56A Y57A R75A L77A L80A L81A): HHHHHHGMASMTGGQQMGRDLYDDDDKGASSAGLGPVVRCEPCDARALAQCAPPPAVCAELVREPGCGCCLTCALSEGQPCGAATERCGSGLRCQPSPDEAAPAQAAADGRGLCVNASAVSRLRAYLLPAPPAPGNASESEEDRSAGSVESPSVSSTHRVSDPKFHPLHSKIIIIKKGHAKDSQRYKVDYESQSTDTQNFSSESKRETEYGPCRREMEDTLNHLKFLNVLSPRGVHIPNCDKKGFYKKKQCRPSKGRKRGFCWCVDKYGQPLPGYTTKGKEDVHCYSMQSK
Chain of wild-type CHO-hIGFBP-3 (6xHis/Xpress/enterokinase-tagged mature human IGFBP-3 expressed in CHO-K1 cells from pRSV-Sec-BP3) (human) (P17936 other isoform, or with tags, fused parts or gaps limits assumed): as the sequence (P17936 other isoform, or with tags, fused parts or gaps I56A Y57A R75A L77A L80A L81A I56A Y57A R75A L77A L80A L81A) above, with A83I, A84Y, A102R, A104L, A107L, A108L counted along it

- percentage of floating PC-3 cells that were dead, with Leu^60-IGF-I [1]: 80%
- percentage of floating PC-3 cells that were dead, without Leu^60-IGF-I [1]: 86%
- percentage of floating PC-3 cells that were dead, with Leu^60-IGF-I [2]: 14%
- percentage of floating PC-3 cells that were dead, without Leu^60-IGF-I [2]: 82%
- percentage of floating PC-3 cells that were dead, with Leu^60-IGF-I [3]: 14%
- percentage of floating PC-3 cells that were dead, without Leu^60-IGF-I [3]: 82%
Substance: Leu^60-IGF-I (IGF-I analogue in which leucine is substituted for tyrosine at position 60; expressed in Escherichia coli) (from UniProt P05019 49-118) (ligand)
